From US20060216279A1

Molecular target: rmGDF8 (R&D) (mouse (from the label rmGDF8 only)) (UniProt O08689)
Assay: Biacore, trap captured on amine-coupled Protein A (CM5), rmGDF8 0.312-20 nM as analyte

Chain of UniProt O08689 (O08689 268-376 limits assumed): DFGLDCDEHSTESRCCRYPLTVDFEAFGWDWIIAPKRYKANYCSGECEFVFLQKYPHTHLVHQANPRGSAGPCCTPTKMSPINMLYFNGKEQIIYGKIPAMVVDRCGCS

Substance: hGDF8(1-38, 43-64)-hFc (Fc fusion)
- Kd: 0.0133 nM
- koff: 6.2e-05 s⁻¹
- kon: 4.66e+06 M⁻¹ s⁻¹
- t½: 3.1 h
